Ends that are not written are not given here. * marks the point of attachment. Biotin = O=C1N[C@H]2[C@H](CS[C@H]2CCCCC(=O)*)N1

Assay [1] addresses T1, biotin conjugated CK18 peptide ^240PKSQDLAKI (human, also: biotin conjugated).
T1 peptide: PKSQDLAKI
In words: ECL assay, hybridoma supernatant on biotin peptide on streptavidin beads. The text has this: (§1) Caspases 3 and 6 generated three CK18 protein fragments having the sequences M1-D238 (SEQ ID NO:4), A239-D397 and 5398-H430. A monoclonal antibody specific for the carboxy terminus of human caspase-cleaved cytokeratin CK18 protein fragment having amino acids M1-D238 (SEQ ID NO:4) was generated by immunizing mice with a short peptide sequence of ²²⁹[…] (SEQ ID NO:1) (designated as peptide P1 for the Examples). Mouse sera were screened for a positive response to peptide P1. Splenocytes from mice with a positive response were fused with myeloma cells and cell culture fluid from the resulting hybridomas screened against peptide P1. Supernatant from hybridoma cells producing antibody with a positive response to peptide P1 were further screened by an electrochemiluminescence (ECL) assay against biotin conjugated peptides ²³⁹[…] (SEQ ID NO:10), ²⁴⁰[…] (SEQ ID NO:11), ²²⁹[…] (SEQ ID NO:1) and ²²⁹[…] (SEQ ID NO:12), which were each bound to streptavidin coated paramagnetic beads. Peptides ²²⁹[…] (SEQ ID NO:1) and ²²⁹[…] (SEQ ID NO:12) represent the amino acid sequences A229-D238 and A229-V237 of cytokeratin 18 protein while peptides ²³⁹[…] (SEQ ID NO:10) and ²⁴⁰[…] (SEQ ID NO:11) represent the amino acid sequences A239-1248 and K240-1248 of cytokeratin 18.

For assay [2], the target named is T2, biotin conjugated CK18 peptide ^239APKSQDLAKI (A239-I248) (human, also: biotin conjugated).
T2 peptide: APKSQDLAKI
Described as above.
From the text: as §1

Assay [3] concerns the target T3, biotin conjugated CK18 peptide ^388EDFNLGDALD (human).
T3 peptide: Biotin-EDFNLGDALD
As to the kind of experiment: immunoassay on biotin peptides on NeutrAvidin-coated 96-well plate. As to the method: (§2) The specificity of monoclonal antibody 3C2 was also assessed in an immunoassay against the peptides ²²⁹[…] (SEQ ID NO:1), ²²⁹[…] (SEQ ID NO:12) and ³⁸⁸[…] (SEQ ID NO:13) (each conjugated with biotin at their amino-terminus), which were added to a 96-well microplate coated with NeutrAvidin® by Invitrogen™. Human cytokeratin 18 protein fragment A239-D397 was also produced by the action of caspase 3 during cellular apoptosis and ends in the sequence ³⁹⁴DALD (SEQ ID NO:9). These peptides were incubated with mAb 3C2, M30 antibody (Enzo Life Sciences®, ALX-804-590) or other unrelated mAbs.

Assay [4] has as its target T4, biotin conjugated CK18 peptide ^229ASSGLTVEV (A229-V237) (human).
T4 peptide: Biotin-ASSGLTVEV
Described as above. As to the method:
as §2

Assay [5] concerns the target T5, biotin conjugated CK18 peptide ^229ASSGLTVEVD (A229-D238) (human).
T5 construct: also called peptide P1
T5 peptide: Biotin-ASSGLTVEVD
The assay is described as above. As to the method:
as §2

Assay [6] addresses T6, human CK18 protein fragment M1-D238 from apoptotic SK-BR3 cells (human, UniProt P05783 1-238).
T6 construct: Endogenous fragment in the supernatant or lysate of SK-BR-3 cells induced to become apoptotic; also called fragment B; caspase-cleaved CK18 fragment
T6 sequence: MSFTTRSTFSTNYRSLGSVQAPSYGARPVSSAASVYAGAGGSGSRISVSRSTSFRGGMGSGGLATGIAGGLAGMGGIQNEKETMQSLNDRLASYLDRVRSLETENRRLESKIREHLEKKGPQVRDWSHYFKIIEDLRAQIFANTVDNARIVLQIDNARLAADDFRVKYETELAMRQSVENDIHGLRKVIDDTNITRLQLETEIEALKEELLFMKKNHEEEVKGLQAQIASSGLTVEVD
As to the kind of experiment: Western blot. As to the method: (§3) FIG. 4 is a photographic reproduction of a Western Blot Analysis using the mAb 3C2 (Lane 1, marker proteins; Lane 2, blank; Lane 3, 1 μg recombinant full length CK18 protein (rCK18); Lane 4, 12 μL of SK-BR3 apoptotic cell supernatant; Lane 5, 12 μL of SK-BR3 cell supernatant). Proteins were run in a 14% Tris/Glycine gel. The concentrations for the test material were 1 μg of rCK18 and 12 μL of SK-BR-3 apoptotic supernatant and SK-BR-3 Cell Lysate. The proteins were run at 150 V constant until the dye front reached the end of the gel. The proteins were then transferred to nitrocellulose. The nitrocellulose was blocked and probed with the 3C2 mAb at 1 μg/mL for 60 minutes. The membrane was washed three times and probed with a goat anti-mouse IgG ALK for 30 minutes. The membrane was washed three times and developed with using a WesternBreeze® kit from Invitrogen™ (Cat # WB7104).

For assay [7], the target named is T7, full length recombinant cytokeratin 18 protein (rCK18) (human, UniProt P05783 1-430).
T7 construct: The exact recombinant construct, including any tags, is not described; also called recombinant full length CK18 protein; full-length (untreated) CK18
T7 sequence: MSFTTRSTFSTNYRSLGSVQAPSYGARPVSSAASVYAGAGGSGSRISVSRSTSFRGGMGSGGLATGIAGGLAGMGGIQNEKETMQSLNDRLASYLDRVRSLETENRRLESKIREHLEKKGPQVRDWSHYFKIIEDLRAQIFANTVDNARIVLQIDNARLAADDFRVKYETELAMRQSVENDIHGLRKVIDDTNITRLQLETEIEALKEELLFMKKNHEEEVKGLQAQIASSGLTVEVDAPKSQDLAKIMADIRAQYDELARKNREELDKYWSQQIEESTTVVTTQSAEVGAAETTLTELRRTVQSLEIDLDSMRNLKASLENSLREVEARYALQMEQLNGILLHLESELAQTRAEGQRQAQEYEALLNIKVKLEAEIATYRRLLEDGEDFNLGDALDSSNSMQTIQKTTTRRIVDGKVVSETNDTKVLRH
As to the kind of experiment: Western blot. As to the method: as §3
(In western blotting, separated proteins are transferred to a membrane and probed.)

Assay [8] has as its target T8, full length CK18 from a cell extract of SK-BR-3 cells (human, UniProt P05783 1-430).
T8 construct: Endogenous CK18 of the human breast cancer cell line SK-BR-3, seen on a Western blot; also called SK-BR3 cell supernatant (lane 5)
T8 sequence: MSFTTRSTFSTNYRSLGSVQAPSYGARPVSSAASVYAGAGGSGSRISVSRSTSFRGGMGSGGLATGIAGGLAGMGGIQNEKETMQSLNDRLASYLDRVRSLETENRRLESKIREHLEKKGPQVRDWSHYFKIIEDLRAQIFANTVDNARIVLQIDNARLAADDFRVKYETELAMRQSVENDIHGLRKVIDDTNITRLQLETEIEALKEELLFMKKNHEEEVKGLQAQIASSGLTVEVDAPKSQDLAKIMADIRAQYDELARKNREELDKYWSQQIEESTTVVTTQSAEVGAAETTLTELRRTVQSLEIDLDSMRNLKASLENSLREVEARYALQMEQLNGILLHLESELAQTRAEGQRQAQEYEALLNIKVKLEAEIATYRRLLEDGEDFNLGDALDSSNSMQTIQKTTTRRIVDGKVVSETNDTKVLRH
In words: Western blot. The procedure:
as §3

The target in assay [9] is T9, recombinant human CK18 protein fragment B (rCK18fB) (human, UniProt P05783 1-238).
T9 construct: also called recombinant CK-18 fragment B protein
T9 sequence: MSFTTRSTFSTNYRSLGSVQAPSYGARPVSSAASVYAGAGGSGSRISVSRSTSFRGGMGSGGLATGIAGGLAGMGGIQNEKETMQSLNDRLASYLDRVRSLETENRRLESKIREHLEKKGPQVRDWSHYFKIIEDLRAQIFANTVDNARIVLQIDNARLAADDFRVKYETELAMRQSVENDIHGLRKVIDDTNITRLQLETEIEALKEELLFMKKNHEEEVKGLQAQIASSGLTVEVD
In words: sandwich ECL assay, capture biotin-3C2 on streptavidin beads, detector TAG-C-04, in normal human serum. As to the method: A recombinant human CK18 protein fragment B (rCK18fB) was prepared using standard procedures. An immunoassay consisted of incubating 50 μL rCK18fB (0, 206, 617, 1852, 5557, 16667, 50,000 and 100,000 U/L) spiked into normal human serum with 50 μL of reaction mix consisting of biotinylated mAb 3C2/streptavidin coated paramagnetic beads and anti-CK18 TAG labeled antibody C-04 for 60 minutes at room temperature with shaking. The bead complex was washed twice, suspended in buffer and read on an ECL analyzer. The results shown in FIG. 6, a representative standard curve, indicate rCK18fB is detectable over a range of 0-100,000 U/L (1 U/L=1000 pg=0.037 pM).

B1: monoclonal antibody 3C2 (antibody, V domains shown)
VH: DVQLVESGGGLVQPGGSRKLSCAASGFTFSSFGMHWVRQAPEKGLEWVAYINGGSTIIYYADTVKGRFTVSRDNPKNTLFLQMTSLRSDDTAMYFCVRRTPTAAGGAMDYWGQGTSVTVSS
VL: NIMVTQSPSSLAVSAGEKVTMTCKSSQSLFYSSNQKNYLAWFQQKPGQSPKLLIYWASTRESGVADRFTGSGYGTDFTLTISSVQAEDLAVYYCQQYLSSWTFGGGTKVEIK
notes: Mouse hybridoma monoclonal antibody, detected with goat anti-mouse IgG; also called mAb 3C2; anti-VEVD mAb
On to B1, for which the binding result in [1] is listed as “no binding”; in assay [2], “no binding”; in assay [3] it was “no binding”; in assay [4] it was “no binding”; in assay [5], “binds”; in assay [6], “binds”. For the same molecule, the figures for the binding result in assay [7], in assay [8] and in assay [9] were “no binding (tested: 3C2 mAb at 1 µg/mL; 1 µg of rCK18)”, “no binding” and “binds”, respectively.

The record behind these values is patent US20170192014A1 (PDL BIOPHARMA, published 2017).
